Measured values as given in US20240240209A1, “SYNTHESIS OF ENANTIOPURE CIS-A-IRONE FROM A RENEWABLE CARBON SOURCE” (Agency for Science, Technology and Research, priority 2021, published 2024).
Values joined by “and” are separate entries in the source; they are usually repeats but may differ in a detail not shown here. Equal entries are not always repeated. “Also recorded” adds a separate entry of the source.

Key:
[1] = Stability of pMT7 (native PAGE, pre-incubation at 28° C.); conditions: incubating or reacting at 28° C. overnight
Protocol: (28 C) or 4° C. (4 C). […] All the data shown is an average of replicate reaction.
(§1) The steady-state kinetic parameters of pMT7 were determined (Table 3). […] While determining the steady-state kinetics of pMT7, it was noticed that the reaction with purified pMT7 stopped at 6 h before significant conversion had taken place (FIG. 15a). Moreover, while using cell extracts containing pMT7, the reaction reached a plateau after 1-day incubation (FIG. 15b). […] Since pMT7 is an hexamer in solution^10, its oligomeric state before and after the reaction was examined. […] (28 C) overnight as compared to 4° C. […] It was further tested if the enzyme was subject to feedback inhibition, as the cofactor product SAH is a potent inhibitor of methyltransferases^12.

[2] = Steady-state kinetics of purified pMT enzyme, substrate psi-ionone; assay type: biochemical; conditions: pMT10 vs pMT7 (Table 3)
Protocol: as §1
To determine the purified enzyme kinetics and in vivo production, the reaction mixture was extracted with 0.5× or 1× volume of ethyl acetate and the organic phase was diluted appropriately before subjected to GCMS analysis. The samples were analyzed on an Agilent Intuvo 9000 GC system equipped with Agilent DB-WAX Ultra Inert Intuvo GC column (30 m×250 μm×0.25 μm) and Agilent 5977B mass spectrometry with high efficiency source. 1 μl organic phase was injected at the split ratio 10:1 at 250° C. […] The concentration of psi-ionone and irone were calculated by interpolating with a standard curve prepared by synthetic standards.

[3] = Fed-batch production of cis-α-irone in 5 L bioreactor; assay type: cell-based, Escherichia coli; conditions: 10% DO, another 24 h after feeding stopped
Protocol: FIGS. 5a and 5b show the time-course profiles of OD600, cis-α-irone, β-irone and psi-ionone titers when DO was controlled at 2% and 10% respectively.
Lastly, a single-phase fed-batch process was tested in a 5 L bioreactor. Even though 2O31 ΔmetJ strain produced a higher titer of cis-α-irone, its growth seemed to be impeded during fermentation. Thus, 2O31-pMT10 strain was tested. The optimized bioprocess for α-ionone was applied^8, in which the glucose feeding rate was set at 10 g/h and the glucose concentration was kept between 0-5 g/L. Two different dissolved oxygen (DO) levels were tested: 2% and 10%. Under these DO settings, evaporation was kept at minimum which is <0.05%. […] Subsequently, cis-α-irone production became faster at 2% DO than 10% DO. At 113 h, when glucose feeding was stopped, approximately 109 mg/L and 106 mg/L cis-α-irone were produced at 2% and 10% DO respectively. By continuing incubating the cultures for another 24 h, a final titer of approximately 153 mg/L and 172 mg/L cis-α-irone were produced at 2% and 10% DO respectively. Simultaneously, a decrease in psi-ionone concentration was observed during the last 24 h, indicating psi-ionone was converted to cis-α-irone. Other DO levels may also be used, for example 15%. […]

[4] = In vitro biotransformation of psi-ionone to cis-α-irone by cell lysate containing overexpressed pMT10; assay type: biochemical; conditions: 28° C., 3 days
Protocol: All the purified enzyme reactions were done in triplicates.
With the positive effect of mtaD, in vitro biotransformation by using cell lysate containing overexpressed pMT10 and mtaD was explored. To challenge the enzyme, 10 mg/L (0.05 mM), 100 mg/L (0.5 mM) or 1000 mg/L (5 mM) of psi-ionone was supplemented into the reaction, and 6.4 mg/L (˜0.03 mM), 54 mg/L (˜0.26 mM) and 182 mg/L (˜0.88 mM) of cis-α-irone were produced, respectively after incubating the reaction at 28° C. for 3 days (FIG. 3d).

Molecule	stability of enzyme [1]	improvement of catalytic efficiency [2] [fold]	final titer of cis-α-irone [3] [mg/L]	cis-α-irone produced ([4]; 10 mg/L (0.05 mM) psi-ionone)	cis-α-irone produced ([4]; 100 mg/L (0.5 mM) psi-ionone)
pMT7: pMT1 with Y200F S182E L273V L180A A202L Y65F (protein, Modified from pMT1, pMT1 with Y200F S182E L273V L180A A202L Y65F) MPQEARTPQQQVTADEVGDWYDKFGEVYHLTLGESVHCGLWFPPDAPVPQDMELVTMSSQAQDRFTDYLIETLDPKAGQHLLDIGCGTGRTALKAARQRGIAVTGVAVSKEQIAAANRLAAGHGLTERLTFEVADAMRLPYEDESFDCAWAIESLCHMDRAKALGEAWRVLKPGGDLLVAEEVVTEELTEPETALFETLFALNVPPRLGEFFDIVSGAGFHTLSLKDLSANLAMTMNVFALGVYSRRAEFTERFGAEFVDGLLAGLGSAQETVIRKTRFFMATLRKPAV	remained intact as hexamer; also recorded: stable under the reaction temperature				
pMT10: pMT1 with Y200F S182E L273V L180A A202L Y65F C156A T91P (protein, Modified from pMT1, pMT1 with Y200F S182E L273V L180A A202L Y65F C156A T91P) MPQEARTPQQQVTADEVGDWYDKFGEVYHLTLGESVHCGLWFPPDAPVPQDMELVTMSSQAQDRFTDYLIETLDPKAGQHLLDIGCGTGRPALKAARQRGIAVTGVAVSKEQIAAANRLAAGHGLTERLTFEVADAMRLPYEDESFDCAWAIESLAHMDRAKALGEAWRVLKPGGDLLVAEEVVTEELTEPETALFETLFALNVPPRLGEFFDIVSGAGFHTLSLKDLSANLAMTMNVFALGVYSRRAEFTERFGAEFVDGLLAGLGSAQETVIRKTRFFMATLRKPAV		10	~172	6.4 mg/L and ~0.03 mM	54 mg/L and ~0.26 mM
